Laboratory results published in the supplement of paper PMC9876800.

test system: peptide library, one residue held at a place counted from the S/T acceptor; assay: relative phosphorylation of the sub-library (ratio to the mean residue at this position); human; higher = residue favoured; conditions: D fixed; at +2
How it was run: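 Spots on streptavidin membranes were phosphorimaged and quantified by densitometry to measure phosphorylation of biotinylated degenerate peptide sub-libraries by purified recombinant kinases, human or orthologue constructs. The reactions ran in 384-well plates for 90 min under kinase-specific conditions, with peptides at 50 μM and 50 μM ATP spiked with γ-32P-ATP. Relative sub-library phosphorylation is the ratio to the mean residue at that position.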

CSNK1A1L, construct: Full length, sequence (Q8N752 whole entry, looked up): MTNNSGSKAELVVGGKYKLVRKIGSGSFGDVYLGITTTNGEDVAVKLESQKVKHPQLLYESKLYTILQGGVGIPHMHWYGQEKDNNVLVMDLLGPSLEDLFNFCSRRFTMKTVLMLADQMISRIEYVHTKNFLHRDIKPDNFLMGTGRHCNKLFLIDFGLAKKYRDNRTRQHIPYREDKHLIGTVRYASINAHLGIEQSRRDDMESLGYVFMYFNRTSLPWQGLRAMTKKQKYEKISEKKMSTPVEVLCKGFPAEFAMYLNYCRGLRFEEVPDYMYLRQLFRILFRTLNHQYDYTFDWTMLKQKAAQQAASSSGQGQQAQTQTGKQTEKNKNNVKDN
CDKL1, construct: aa2-304, sequence (Q00532 2-304, looked up): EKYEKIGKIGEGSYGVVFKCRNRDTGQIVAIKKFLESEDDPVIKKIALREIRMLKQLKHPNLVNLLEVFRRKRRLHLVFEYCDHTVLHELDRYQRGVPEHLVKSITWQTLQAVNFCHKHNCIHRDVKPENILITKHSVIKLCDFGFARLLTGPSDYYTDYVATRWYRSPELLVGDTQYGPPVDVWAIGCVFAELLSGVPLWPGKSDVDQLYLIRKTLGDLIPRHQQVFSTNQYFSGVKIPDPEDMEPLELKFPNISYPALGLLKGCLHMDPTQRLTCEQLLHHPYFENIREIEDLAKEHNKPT
TSSK1B, construct: Full length, sequence (Q9BXA7 whole entry, looked up): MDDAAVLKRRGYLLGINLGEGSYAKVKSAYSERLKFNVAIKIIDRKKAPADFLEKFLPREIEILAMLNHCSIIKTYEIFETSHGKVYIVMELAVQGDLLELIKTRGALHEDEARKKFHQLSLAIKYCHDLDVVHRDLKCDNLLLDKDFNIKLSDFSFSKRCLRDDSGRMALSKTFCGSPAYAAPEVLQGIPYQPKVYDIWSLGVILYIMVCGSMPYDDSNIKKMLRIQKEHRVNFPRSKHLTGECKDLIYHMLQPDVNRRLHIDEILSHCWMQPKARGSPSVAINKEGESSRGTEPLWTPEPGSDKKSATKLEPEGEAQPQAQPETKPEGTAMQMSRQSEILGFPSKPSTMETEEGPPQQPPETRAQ
CAMK2D, construct: Full length, sequence (Q13557 whole entry, looked up): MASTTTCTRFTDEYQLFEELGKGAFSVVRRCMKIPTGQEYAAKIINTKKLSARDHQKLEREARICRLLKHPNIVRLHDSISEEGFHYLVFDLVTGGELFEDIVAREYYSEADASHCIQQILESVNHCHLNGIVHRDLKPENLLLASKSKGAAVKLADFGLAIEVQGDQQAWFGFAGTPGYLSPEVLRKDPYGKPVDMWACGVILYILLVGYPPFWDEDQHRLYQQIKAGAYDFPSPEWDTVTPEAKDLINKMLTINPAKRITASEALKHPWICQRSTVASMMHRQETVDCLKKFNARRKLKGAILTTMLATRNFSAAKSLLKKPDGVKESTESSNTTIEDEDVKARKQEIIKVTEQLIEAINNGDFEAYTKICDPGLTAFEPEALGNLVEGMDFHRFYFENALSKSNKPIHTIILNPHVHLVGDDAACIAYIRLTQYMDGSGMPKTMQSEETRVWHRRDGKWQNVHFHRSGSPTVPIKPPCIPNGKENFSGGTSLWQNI
CIT, construct: aa1-449, sequence (O14578 1-449, looked up): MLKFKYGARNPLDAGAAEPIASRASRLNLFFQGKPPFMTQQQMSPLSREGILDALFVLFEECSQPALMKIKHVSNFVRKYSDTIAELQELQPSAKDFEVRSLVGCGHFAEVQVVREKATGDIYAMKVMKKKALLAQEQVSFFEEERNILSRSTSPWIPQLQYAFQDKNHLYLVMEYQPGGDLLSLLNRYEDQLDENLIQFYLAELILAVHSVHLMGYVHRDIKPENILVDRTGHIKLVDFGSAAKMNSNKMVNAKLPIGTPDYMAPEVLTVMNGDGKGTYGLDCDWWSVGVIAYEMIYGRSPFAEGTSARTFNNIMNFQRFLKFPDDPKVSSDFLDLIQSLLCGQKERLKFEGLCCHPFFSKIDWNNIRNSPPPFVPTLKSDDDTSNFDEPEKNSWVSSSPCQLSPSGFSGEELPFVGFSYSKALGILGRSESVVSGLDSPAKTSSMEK
PAK1, construct: aa150-end, sequence (Q13153 150-545, looked up): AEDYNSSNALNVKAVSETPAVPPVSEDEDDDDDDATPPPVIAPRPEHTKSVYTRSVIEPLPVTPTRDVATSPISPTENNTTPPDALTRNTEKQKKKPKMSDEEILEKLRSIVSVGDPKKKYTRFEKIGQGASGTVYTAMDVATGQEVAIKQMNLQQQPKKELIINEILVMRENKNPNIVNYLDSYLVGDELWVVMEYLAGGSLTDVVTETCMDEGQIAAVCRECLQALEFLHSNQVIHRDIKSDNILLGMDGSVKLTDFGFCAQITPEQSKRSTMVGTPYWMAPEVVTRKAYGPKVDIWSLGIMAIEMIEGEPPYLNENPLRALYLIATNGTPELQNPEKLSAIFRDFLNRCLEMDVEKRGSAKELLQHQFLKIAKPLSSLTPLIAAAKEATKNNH
CSNK1G3, construct: Full length, sequence (Q9Y6M4 whole entry, looked up): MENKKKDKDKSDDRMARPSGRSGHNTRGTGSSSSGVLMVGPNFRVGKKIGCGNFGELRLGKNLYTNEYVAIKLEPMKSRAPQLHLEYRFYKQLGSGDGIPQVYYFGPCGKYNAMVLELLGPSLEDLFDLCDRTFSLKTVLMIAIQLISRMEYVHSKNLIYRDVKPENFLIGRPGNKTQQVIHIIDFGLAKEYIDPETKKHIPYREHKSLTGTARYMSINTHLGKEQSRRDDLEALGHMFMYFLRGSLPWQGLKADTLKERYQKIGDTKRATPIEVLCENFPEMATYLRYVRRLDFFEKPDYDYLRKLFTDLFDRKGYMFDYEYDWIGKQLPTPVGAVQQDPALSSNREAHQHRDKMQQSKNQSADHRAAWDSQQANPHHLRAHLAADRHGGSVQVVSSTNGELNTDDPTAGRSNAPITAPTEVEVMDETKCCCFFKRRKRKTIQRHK
ACVR1B, construct: aa150-end, sequence (P36896 150-505, looked up): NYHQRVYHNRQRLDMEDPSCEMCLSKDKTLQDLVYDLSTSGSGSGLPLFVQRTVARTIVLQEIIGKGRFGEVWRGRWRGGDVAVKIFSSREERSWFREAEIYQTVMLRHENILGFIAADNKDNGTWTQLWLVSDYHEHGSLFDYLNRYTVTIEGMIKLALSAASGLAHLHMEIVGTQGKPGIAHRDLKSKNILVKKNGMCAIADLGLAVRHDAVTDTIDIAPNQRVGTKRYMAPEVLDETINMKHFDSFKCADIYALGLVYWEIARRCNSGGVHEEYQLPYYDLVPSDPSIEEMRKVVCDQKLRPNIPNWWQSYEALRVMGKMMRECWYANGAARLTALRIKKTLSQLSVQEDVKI

Substance | relative phosphorylation
TSSK1B, construct: Full length (from UniProt Q9BXA7) | 0.465
CSNK1A1L, construct: Full length (from UniProt Q8N752) | 0.714
CSNK1G3, construct: Full length (from UniProt Q9Y6M4) | 0.941

same assay, conditions: D fixed; at +3

Substance | relative phosphorylation
CIT, construct: aa1-449 (from UniProt O14578) | 0.789
PAK1, construct: aa150-end (from UniProt Q13153) | 0.959
CAMK2D, construct: Full length (from UniProt Q13557) | 1.4
CDKL1, construct: aa2-304 (from UniProt Q00532) | 0.793
ACVR1B, construct: aa150-end (from UniProt P36896) | 1.11
TSSK1B, construct: Full length (from UniProt Q9BXA7) | 1.55
CSNK1A1L, construct: Full length (from UniProt Q8N752) | 0.868
CSNK1G3, construct: Full length (from UniProt Q9Y6M4) | 2.63

same assay, conditions: D fixed; at +4

Substance | relative phosphorylation
CIT, construct: aa1-449 (from UniProt O14578) | 0.886
PAK1, construct: aa150-end (from UniProt Q13153) | 1.32
CAMK2D, construct: Full length (from UniProt Q13557) | 1.45
CDKL1, construct: aa2-304 (from UniProt Q00532) | 0.858
ACVR1B, construct: aa150-end (from UniProt P36896) | 1.24
TSSK1B, construct: Full length (from UniProt Q9BXA7) | 0.621
CSNK1A1L, construct: Full length (from UniProt Q8N752) | 0.854
CSNK1G3, construct: Full length (from UniProt Q9Y6M4) | 1.12

same assay, conditions: D fixed; at -1

Substance | relative phosphorylation
CIT, construct: aa1-449 (from UniProt O14578) | 0.385
PAK1, construct: aa150-end (from UniProt Q13153) | 0.592
CAMK2D, construct: Full length (from UniProt Q13557) | 0.967
CDKL1, construct: aa2-304 (from UniProt Q00532) | 0.693
ACVR1B, construct: aa150-end (from UniProt P36896) | 1.05
TSSK1B, construct: Full length (from UniProt Q9BXA7) | 0.453
CSNK1A1L, construct: Full length (from UniProt Q8N752) | 0.749
CSNK1G3, construct: Full length (from UniProt Q9Y6M4) | 0.701

same assay, conditions: D fixed; at -2

Substance | relative phosphorylation
CIT, construct: aa1-449 (from UniProt O14578) | 0.254
PAK1, construct: aa150-end (from UniProt Q13153) | 0.203
CAMK2D, construct: Full length (from UniProt Q13557) | 0.476
CDKL1, construct: aa2-304 (from UniProt Q00532) | 0.715
ACVR1B, construct: aa150-end (from UniProt P36896) | 1.58
TSSK1B, construct: Full length (from UniProt Q9BXA7) | 0.495
CSNK1A1L, construct: Full length (from UniProt Q8N752) | 0.716
CSNK1G3, construct: Full length (from UniProt Q9Y6M4) | 1.08

same assay, conditions: D fixed; at -3

Substance | relative phosphorylation
CIT, construct: aa1-449 (from UniProt O14578) | 0.176
PAK1, construct: aa150-end (from UniProt Q13153) | 0.558
CAMK2D, construct: Full length (from UniProt Q13557) | 0.264
CDKL1, construct: aa2-304 (from UniProt Q00532) | 0.534
ACVR1B, construct: aa150-end (from UniProt P36896) | 1.35
TSSK1B, construct: Full length (from UniProt Q9BXA7) | 0.378
CSNK1A1L, construct: Full length (from UniProt Q8N752) | 1.06
CSNK1G3, construct: Full length (from UniProt Q9Y6M4) | 5.05

same assay, conditions: D fixed; at -4

Substance | relative phosphorylation
CIT, construct: aa1-449 (from UniProt O14578) | 0.422
PAK1, construct: aa150-end (from UniProt Q13153) | 0.825
CAMK2D, construct: Full length (from UniProt Q13557) | 0.439
CDKL1, construct: aa2-304 (from UniProt Q00532) | 0.874
ACVR1B, construct: aa150-end (from UniProt P36896) | 1.55
TSSK1B, construct: Full length (from UniProt Q9BXA7) | 0.625
CSNK1A1L, construct: Full length (from UniProt Q8N752) | 0.888
CSNK1G3, construct: Full length (from UniProt Q9Y6M4) | 1.58

same assay, conditions: D fixed; at -5

Substance | relative phosphorylation
CIT, construct: aa1-449 (from UniProt O14578) | 0.299
PAK1, construct: aa150-end (from UniProt Q13153) | 0.785
CAMK2D, construct: Full length (from UniProt Q13557) | 0.415
CDKL1, construct: aa2-304 (from UniProt Q00532) | 0.771
ACVR1B, construct: aa150-end (from UniProt P36896) | 1.12
TSSK1B, construct: Full length (from UniProt Q9BXA7) | 0.389
CSNK1A1L, construct: Full length (from UniProt Q8N752) | 0.771
CSNK1G3, construct: Full length (from UniProt Q9Y6M4) | 1.8

same assay, conditions: E fixed; at +1

Substance | relative phosphorylation
CIT, construct: aa1-449 (from UniProt O14578) | 0.373
PAK1, construct: aa150-end (from UniProt Q13153) | 0.428
CAMK2D, construct: Full length (from UniProt Q13557) | 0.719
CDKL1, construct: aa2-304 (from UniProt Q00532) | 0.721
ACVR1B, construct: aa150-end (from UniProt P36896) | 1.75
TSSK1B, construct: Full length (from UniProt Q9BXA7) | 0.69
CSNK1A1L, construct: Full length (from UniProt Q8N752) | 0.871
CSNK1G3, construct: Full length (from UniProt Q9Y6M4) | 0.611

same assay, conditions: E fixed; at +2

Substance | relative phosphorylation
CIT, construct: aa1-449 (from UniProt O14578) | 0.517
PAK1, construct: aa150-end (from UniProt Q13153) | 0.398
CAMK2D, construct: Full length (from UniProt Q13557) | 2.31
CDKL1, construct: aa2-304 (from UniProt Q00532) | 0.803
ACVR1B, construct: aa150-end (from UniProt P36896) | 0.847
TSSK1B, construct: Full length (from UniProt Q9BXA7) | 0.497
CSNK1A1L, construct: Full length (from UniProt Q8N752) | 0.578
CSNK1G3, construct: Full length (from UniProt Q9Y6M4) | 0.607

same assay, conditions: E fixed; at +3

Substance | relative phosphorylation
CIT, construct: aa1-449 (from UniProt O14578) | 0.638
PAK1, construct: aa150-end (from UniProt Q13153) | 1.09
CAMK2D, construct: Full length (from UniProt Q13557) | 1.46
CDKL1, construct: aa2-304 (from UniProt Q00532) | 0.747
ACVR1B, construct: aa150-end (from UniProt P36896) | 1.54
TSSK1B, construct: Full length (from UniProt Q9BXA7) | 0.747
CSNK1A1L, construct: Full length (from UniProt Q8N752) | 0.9
CSNK1G3, construct: Full length (from UniProt Q9Y6M4) | 1.46

same assay, conditions: E fixed; at +4

Substance | relative phosphorylation
CIT, construct: aa1-449 (from UniProt O14578) | 0.851
PAK1, construct: aa150-end (from UniProt Q13153) | 1.29
CAMK2D, construct: Full length (from UniProt Q13557) | 1.41
